Legend:
[1] = target: His-YAP-SA (recombinant hexahistidine-tagged YAP serine to alanine mutant, pET-15b)
[2] = target: YAP S127A mutant (human YAP, transfected, Flag- or HA-tagged)

B1: LATS2 (human cDNA, GenBank Accession No. NP-055387.2, Flag- or HA-tagged) (protein)
chain: MRPKTFPATTYSGNSRQRLQEIREGLKQPSKSSVQGLPAGPNSDTSLDAKVLGSKDATRQQQQMRATPKFGPYQKALREIRYSLLPFANESGTSAAAEVNRQMLQELVNAGCDQEMAGRALKQTGSRSIEAALEYISKMGYLDPRNEQIVRVIKQTSPGKGLMPTPVTRRPSFEGTGDSFASYHQLSGTPYEGPSFGADGPTALEEMPRPYVDYLFPGVGPHGPGHQHQHPPKGYGASVEAAGAHFPLQGAHYGRPHLLVPGEPLGYGVQRSPSFQSKTPPETGGYASLPTKGQGGPPGAGLAFPPPAAGLYVPHPHHKQAGPAAHQLHVLGSRSQVFASDSPPQSLLTPSRNSLNVDLYELGSTSVQQWPAATLARRDSLQKPGLEAPPRAHVAFRPDCPVPSRTNSFNSHQPRPGPPGKAEPSLPAPNTVTAVTAAHILHPVKSVRVLRPEPQTAVGPSHPAWVPAPAPAPAPAPAPAAEGLDAKEEHALALGGAGAFPLDVEYGGPDRRCPPPPYPKHLLLRSKSEQYDLDSLCAGMEQSLRAGPNEPEGGDKSRKSAKGDKGGKDKKQIQTSPVPVRKNSRDEEKRESRIKSYSPYAFKFFMEQHVENVIKTYQQKVNRRLQLEQEMAKAGLCEAEQEQMRKILYQKESNYNRLKRAKMDKSMFVKIKTLGIGAFGEVCLACKVDTHALYAMKTLRKKDVLNRNQVAHVKAERDILAEADNEWVVKLYYSFQDKDSLYFVMDYIPGGDMMSLLIRMEVFPEHLARFYIAELTLAIESVHKMGFIHRDIKPDNILIDLDGHIKLTDFGLCTGFRWTHNSKYYQKGSHVRQDSMEPSDLWDDVSNCRCGDRLKTLEQRARKQHQRCLAHSLVGTPNYIAPEVLLRKGYTQLCDWWSVGVILFEMLVGQPPFLAPTPTETQLKVINWENTLHIPAQVKLSPEARDLITKLCCSADHRLGRNGADDLKAHPFFSAIDFSSDIRKQPAPYVPTISHPMDTSNFDPVDEESPWNDASEGSTKAWDTLTSPNNKHPEHAFYEFTFRRFFDDNGYPFRCPKPSGAEASQAESSDLESSDLVDQTEGCQPVYV
in-vitro kinase assay, 32P-labeled YAP by autoradiography [1]: markedly reduced levels of phosphorylation of YAP S127A mutant by LATS1/2
phosphorylation of YAP in co-transfected WW45-deficient keratinocytes (Western blot) [2]: only the S127A mutant was not phosphorylated by activated LATS2 in cells

B2: LATS1 (human cDNA, GenBank Accession No. NP-004681.1, Flag- or HA-tagged) (protein)
chain: MKRSEKPEGYRQMRPKTFPASNYTVSSRQMLQEIRESLRNLSKPSDAAKAEHNMSKMSTEDPRQVRNPPKFGTHHKALQEIRNSLLPFANETNSSRSTSEVNPQMLQDLQAAGFDEDMVIQALQKTNNRSIEAAIEFISKMSYQDPRREQMAAAAARPINASMKPGNVQQSVNRKQSWKGSKESLVPQRHGPPLGESVAYHSESPNSQTDVGRPLSGSGISAFVQAHPSNGQRVNPPPPPQVRSVTPPPPPRGQTPPPRGTTPPPPSWEPNSQTKRYSGNMEYVISRISPVPPGAWQEGYPPPPLNTSPMNPPNQGQRGISSVPVGRQPIIMQSSSKFNFPSGRPGMQNGTGQTDFMIHQNVVPAGTVNRQPPPPYPLTAANGQSPSALQTGGSAAPSSYTNGSIPQSMMVPNRNSHNMELYNISVPGLQTNWPQSSSAPAQSSPSSGHEIPTWQPNIPVRSNSFNNPLGNRASHSANSQPSATTVTAITPAPIQQPVKSMRVLKPELQTALAPTHPSWIPQPIQTVQPSPFPEGTASNVTVMPPVAEAPNYQGPPPPYPKHLLHQNPSVPPYESISKPSKEDQPSLPKEDESEKSYENVDSGDKEKKQITTSPITVRKNKKDEERRESRIQSYSPQAFKFFMEQHVENVLKSHQQRLHRKKQLENEMMRVGLSQDAQDQMRKMLCQKESNYIRLKRAKMDKSMFVKIKTLGIGAFGEVCLARKVDTKALYATKTLRKKDVLLRNQVAHVKAERDILAEADNEWVVRLYYSFQDKDNLYFVMDYIPGGDMMSLLIRMGIFPESLARFYIAELTCAVESVHKMGFIHRDIKPDNILIDRDGHIKLTDFGLCTGFRWTHDSKYYQSGDHPRQDSMDFSNEWGDPSSCRCGDRLKPLERRAARQHQRCLAHSLVGTPNYIAPEVLLRTGYTQLCDWWSVGVILFEMLVGQPPFLAQTPLETQMKVINWQTSLHIPPQAKLSPEASDLIIKLCRGPEDRLGKNGADEIKAHPFFKTIDFSSDLRQQSASYIPKITHPTDTSNFDPVDPDKLWSDDNEEENVNDTLNGWYKNGKHPEHAFYEFTFRRFFDDNGYPYNYPKPIEYEYINSQGSEQQSDEDDQNTGSEIKNRDLVYV
in-vitro kinase assay, 32P-labeled YAP by autoradiography [1]: markedly reduced levels of phosphorylation of YAP S127A mutant by LATS1/2
